Data reported in US20230095167A1 (UNIVERSITEIT MAASTRICHT, published 2023).

T1: recombinant NT-proBMP10 (22-312) (human, UniProt O95393 22-312)
T1 construct: In-house construct; also called pro-peptide BMP10; BMP10(312)
T1 sequence: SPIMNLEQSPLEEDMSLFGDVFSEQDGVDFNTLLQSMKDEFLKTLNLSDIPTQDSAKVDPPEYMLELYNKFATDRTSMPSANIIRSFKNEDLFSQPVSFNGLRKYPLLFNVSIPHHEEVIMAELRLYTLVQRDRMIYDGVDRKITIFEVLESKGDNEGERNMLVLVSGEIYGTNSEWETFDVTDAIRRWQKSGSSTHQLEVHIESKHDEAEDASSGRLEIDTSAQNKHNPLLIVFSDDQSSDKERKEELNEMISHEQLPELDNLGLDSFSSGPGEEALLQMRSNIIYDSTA


Columns and labels:
[1] = target: T1, recombinant NT-proBMP10 (22-312); assay: SPR Biacore 8K, 37°C, bound analyte per mAb
[2] = target: T1, recombinant NT-proBMP10 (22-312); assay: SPR Biacore 8K, 37°C, mAb captured, BMP10(312) as analyte; ln(2)/60*kd
Method: (§1) The association phase was monitored for 3 minutes; dissociation phase was monitored for 10 minutes. After each cycle of kinetics determination, the rabbit clones were eluted from the capture system by an injection of 10 mM Glycine pH 2.0 for 1 minute, followed by two consecutive injections of 10 mM Glycine pH 2.25 at 20 μL/min for 1 minute.
(§2) The dissociation rate constant kd was evaluated using a Langmuir 1:1 fit model according to the BIAcore™ evaluation software Insight SW V 2.0 from GE Healthcare. The antigen/antibody complex stability half-life time (minutes) was calculated according to the formula ln(2)/60*kd.

[3] = target: T1, recombinant NT-proBMP10 (22-312); assay: SPR Biacore 8K, 37°C, mAb captured by goat anti-rabbit Fc, BMP10(312) 3.7-300 nM as analyte; apparent, avidity-burdened
Method: as §1, §2

Binder	MR (Molar Ratio) [1]	t/2 diss (complex half-life) [2]	koff [3]
MAB<BMP10>rRb-2H8 HC7/LC6 (p10qv/p10qw)-IgG(SPA) (antibody, V domains shown, Recombinant rabbit monoclonal IgG; also called clone 2H8; VH-6/VL-6) VH: QSVEESGGRLVTPGTPLTLTCTASAFSLSRYVMSWVRQAPGKGLEFIGFINASGSTSYASWAKGRFTISKTSTTVDLKMTSLTTEDTATYFCATGNLWGPGTLVTVSS VL: DIVMTQTPSSVSGPVGGTVTINCQASQNIYSNLAWYQQKPGQPPKLLIYYASTLVSGVPSRFKGSGSGTQFTLTISDLECANAATYYCQSKDGPTSSTYGAFGGGTEVVVR	1.2	38 min	0.0003 s⁻¹
MAB<BMP10>rRb-8G5 HC3/LC5 (p10qz/p10ra)-IgG(SPA) (antibody, V domains shown, Recombinant rabbit monoclonal IgG; also called clone 8G5; VH-8/VL-8) VH: QSLEESGGDLVKPGASLTLTCTASGFSFSSSYWICWVRQAPGKGLEWIACIYAGSSDITYYASWAKGRFTVSKTSSPTVTLQMTSLTAADTATYFCARGRYYVDGYADYYPGDFNLWGPGTLVTVSS VL: DIVMTQTPASVEAAVGGTVTIKCQASQSISSYLAWYQQKSGQPPKLLIYLASTLESGVPSRFKGSGSGTEFTLTISDLECADAATYYCQSYYYSSSSSYGSAFGGGTEVVVK	1.2	6 min	0.0021 s⁻¹
MAB<BMP10>rRb-9E7 HC12/LC7 (p10rw/p10rx)-IgG(SPA) (antibody, V domains shown, Recombinant rabbit monoclonal IgG; also called clone 9E7) VH: QSLEESGGGLVQPEGSLTLTCIASAFSFSSGYYMCWVRQAPGKGLEWIACIYAGSSGTTYYASWAKGRFTISKASSTTVTLLMTSLTAADTATYFCARGPGASGYRLGLWGPGTLVTVSS VL: DVVMTQTPASVSEPVGGTVTIKCQASEDIYRLLAWYQQKPGQPPKLLIYDASDLASGVPSRLSGSGSGTEYTLSISDLECADAATYYCQQGYYISGGDSFGGGTEVVVK	1.4	21 min	0.00054 s⁻¹
MAB<BMP10>rRb-11A5 HC6/LC3.2 (p10se/p10sf)-IgG(SPA) (antibody, V domains shown, Recombinant rabbit monoclonal IgG; also called clone 11A5; VH-2/VL-2) VH: QSVEESGGRLVTPGTPLTLTCTASGFSLSSYAMSWVRQAPGKGLQFIGYISGGGSTYYASWVKGRFTISKTSTTVDLKLTSPTTEDTATYFCARGYPGYISGTWAVGQGTLVTVSS VL: AVLTQTPSPVSAAVGGTVSISCQSSQSVVNNNRCSWFQQKPGQPPKQLIYSASTLASGVPSRFKGSGSGTQFTLTISDVQCDDAATYYCLGDYVSYGDSAFGGGTEVVVK	1.4	30 min	0.00039 s⁻¹
11C10 (antibody, V domains shown, Rabbit monoclonal IgG; also called clone 11C10; VH-3/VL-3) VH: QSLEESGGRLVTPGTALTVTCTVSGIDLSRNLMSWVRQAPGEGLEWIGSINFRNITWYASWAKGRFTISKTSTTVDLRISSPTTEDTATYFCARGVYVNSNGYYSLWGQGTPVTVSS VL: DIVMTQTPASVEAAVGGTVTINCQASQSVSNLLAWYQQKPGQPPKLLIYGASKLESGVPSRFKGSGSGTQFTLTINDLECDDAATYYCQTYWGGDGTSYLNPFGGGTEVVVK	1.3	26 min	0.00045 s⁻¹
MAB<BMP10>rRb-14C8 HC2/LC3 (p10th/p10ti)-IgG(SPA) (antibody, V domains shown, Recombinant rabbit monoclonal IgG; also called clone 14C8; VH-5/VL-5) VH: QSVEESGGRLVTPGTPLTLTCTASGIDLSRYAMTWVRQAPGKGLEWIGIIGASSGTWYASWAKGRFTIAKTSTTVDLRITSPTTEDTATYFCARDNGDSKDYAFDPWGPGTLVTVSS VL: IDMTQTPSPVSAAVGDTVTINCQASENIYSFLAWYQQKPGHSPNLLIYFASKLVSGVPSRFKGSGSGTQFTLTISDVQCDDAATYYCQQTYTYSNGDNPFGGGTEVVVK	1.3	10 min	0.0012 s⁻¹
MAB<BMP10>rRb-13G6 (p10tf/p10tg)-IgG(SPA) (antibody, V domains shown, Recombinant rabbit monoclonal IgG; also called clone 13G6; VH-4/VL-4) VH: QSLEESGGRLVTPGTPLTLTCTVSGFSLSNYAMSWVRQAPGMGLEYIGYISASGNTYYASWVKGRFTISKTSTTVDLKMTSPTTEDTATYFCARGYSGWISGTWAVGQGTLVTVSS VL: AVLTQTPSPVSAAVGGTVNIGCQSSQSVVNNNRLSWFQQRPGQPPKQLIYRASTLASGVPSRFKGSGSGTQFTLTISDVQCDDAATYYCLGDYVSYSEAAFGGGTEVVVK	1.3	> 115 min	< 0.0001 s⁻¹
MAB<BMP10>rRb-3H8 HC3/LC3 (p10qx/p10qy)-IgG(SPA) (antibody, V domains shown, Recombinant rabbit monoclonal IgG; also called clone 3H8; VH-7/VL-7) VH: QSVEESGGRLVTPGTPLTLTCTASGFSLSKYDMSWVRQAPGKGLEWIGAIGGRGVTDYTTWAKGRFTISKTATTVDLKMTSPTTEDTATYFCVRALAGDTLWGPGTLVTVSS VL: AQVLTQTASPVSAAVGSTVTINCQASQNIYKYNNLAWYQQKPGQPPKRLIYEASKLASGVPSRFSGSGSGTQFTLTISGVQCEDAATYYCQGTFECSSADCFGFGGGTEVVVK	1.3	15 min	0.00078 s⁻¹
